Data: paper doi:10.1101/473132

Target: H3K9me3 mononucleosome with one disulfide bridge between H3 I62C and H4 A33C (oxidized) (X. laevis)
Assay: fluorescence polarisation

Swi6 (S. pombe HP1 protein), sequence (P40381 whole entry): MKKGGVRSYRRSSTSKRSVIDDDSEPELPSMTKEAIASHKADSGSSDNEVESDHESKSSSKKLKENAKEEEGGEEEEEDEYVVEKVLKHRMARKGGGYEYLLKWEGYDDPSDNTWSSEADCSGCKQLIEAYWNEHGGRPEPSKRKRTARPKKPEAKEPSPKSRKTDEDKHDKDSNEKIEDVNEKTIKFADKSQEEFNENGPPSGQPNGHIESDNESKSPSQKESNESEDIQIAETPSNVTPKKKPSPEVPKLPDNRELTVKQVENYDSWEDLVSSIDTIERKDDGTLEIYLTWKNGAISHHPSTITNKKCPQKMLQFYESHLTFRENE

Kd: 0.3 µM
Substance: Swi6 (S. pombe HP1 protein) (from UniProt P40381 1-328) (natural protein)
